Results reported in publication PMC11855334, “Exploring the Potential of Glutathione Reductase Overexpression to Improve Tellurium Nanoparticle Production in Escherichia coli” (International Journal of Molecular Sciences, 2025).

B1: glutathione reductase from E. coli (enzyme, UniProt P06715 1-450, looked up)
chain: MTKHYDYIAIGGGSGGIASINRAAMYGQKCALIEAKELGGTCVNVGCVPKKVMWHAAQIREAIHMYGPDYGFDTTINKFNWETLIASRTAYIDRIHTSYENVLGKNNVDVIKGFARFVDAKTLEVNGETITADHILIATGGRPSHPDIPGVEYGIDSDGFFALPALPERVAVVGAGYIAVELAGVINGLGAKTHLFVRKHAPLRSFDPMISETLVEVMNAEGPQLHTNAIPKAVVKNTDGSLTLELEDGRSETVDCLIWAIGREPANDNINLEAAGVKTNEKGYIVVDKYQNTNIEGIYAVGDNTGAVELTPVAVAAGRRLSERLFNNKPDEHLDYSNIPTVVFSHPPIGTVGLTEPQAREQYGDDQVKVYKSSFTAMYTAVTTHRQPCRMKLVCVGSEEKIVGIHGIGFGMDEMLQGFAVALKMGATKKDFDNTVAIHPTAAEEFVTMR
notes: glutathione reductase (GR) of Escherichia coli; cloned in earlier work of the same laboratory; also called E. coli GR; GR; source: E. coli C41 (DE3), purified (HisTrap HP)
B2: glutathione reductase from Enterobacter cloacae strain MF01 (enzyme)
chain: MTKHYDYIAIGGGSGGIASINRAAMYGQKCALIEAKALGGTCVNVGCVPKKVMWHAAQIREAIHMYGPDYGFDTTINHFDWEKLIASRTAYIDRIHTSYDNVLGKNNVDVIHGFARFVDAKTIEVNGETITADHILIATGGRPSHPNIPGAEYGIDSDGFFVLPALPERVAVVGAGYIAVELAGVINGLGAEAHLFVRKHAPLRSFDPLIVDTLVEVMNTEGPTLHTNAVPKAVIKNADGSLTLELEDGRSQTVDCLIWAIGREPANDNFNLAVTGVKTDEKGYIVVDKFQNTSVPGIYAVGDNTGAVELTPVAVAAGRRLSERLFNNKPDEHLDYSNIPTVVFSHPPIGTVGLTEPQAREQYGDDQVKVYKSAFTAMYTAVTSHRQPCRMKLVCVGPEEKIVGIHGIGFGMDEILQGFAVALKMGATKKDFDNTVAIHPTAAEEFVTMR
B3: glutathione reductase from Psychrobacter immobilis strain BNF08 (enzyme)
chain: MTKHYDYIAIGGGSGGIASINRAASYGKKCAVIEANQLGGTCVNLGCVPKKVMWYGAQIAEAIHKYAPDYGFNVDVKGFDFQKLVQSRQQYIENIHRSYDNNLAKNGVEVIKGFAKFVDTNTVEVNGELITADHILIATGGHPIQPDIKGAEYGIDSDGFFALNHLPKRVAIVGAGYIAVEIAGVLNSLGAEVHLYVRQHSPLRSFDHSVVEALLIEMEQDGIQLHTNTTLTEVNKNEDGSLTLCTENGSLDTTDCLIWAIGRAPSTDNINLQVTGVETNEIGKIKVDKFQNTNVKNIYAVGDIIENSVDLTPVAIAAGRRLSERLFNNKPNEHLDYTLIPTVIFTHPAIGTIGLSEIDAVERYGKENIKCYKSTFTSMYSAVTQHRQKCMMKLVCLGDEEKVIGLHGLGFGVDEMIQGFAVAIKMGATKADFDNTVAIHPTGSEEFVTMR

Tests used:
[1] = biological target: glutathione reductase from Pseudomonas lini strain BNF22 (Pseudomonas lini (strain BNF22)); assay: SEC; Superdex 200; 20 mM sodium phosphate pH 7.4, 200 mM NaCl, 1 mM β-mercaptoethanol; elution times compared to a gel filtration protein standard; homodimer
[2] = biological target: the molecule itself; assay: as above

Molecule | stoichiometry N [1] | stoichiometry N [2]
glutathione reductase from Pseudomonas lini strain BNF22 (enzyme) | 2 | –
B1 | – | 2
B2 | – | 2
B3 | – | 2
